Results published in patent US20100008909A1 (ZymoGenetics, published 2010).
Several values for one entry are separate records, joined by “and”; a condition that tells them apart may be missing. Equal entries are not always repeated.

Biological target: T1, biotinylated IL31 (human, UniProt Q6EBC2 24-164, biotinylated (sites not given))
T1 construct: also called human IL-31; huIL-31
T1 sequence: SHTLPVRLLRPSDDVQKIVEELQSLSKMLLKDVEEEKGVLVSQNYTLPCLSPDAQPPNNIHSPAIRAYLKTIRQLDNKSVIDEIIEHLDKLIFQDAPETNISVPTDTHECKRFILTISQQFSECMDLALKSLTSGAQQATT
Assay: ELISA with a dilution series of biotinylated IL31, 4-parameter fit (apparent Kd/EC50 as IL31 concentration); parental mouse mAb as control; average of duplicate
Description: The assay format utilized a goat anti-human Fc immobilization for capture of human monoclonal antibodies from unprocessed cell culture conditioned media. A dilution series of biotinylated IL31 tested the “C” parameter of a 4-parameter fit which results in the apparent Kd (or EC50) in either ng/mL or nM of IL31. The assay sensitivity is high enough that dilute monoclonal antibody or chimeric antibody cell culture conditioned media can be evaluated. The Kd determined by this method generally approaches the Kd measured for purified, homogeneous monoclonal antibodies measured using Biacore.

B1: 292.63.5.3 (Lot E9289) Control monoclonal antibody (antibody, V domains shown)
VH: EVQLVESGGDLVKPGGSLKLSCAASGFTFSTFIMSWVRQSPEKRLEWVATINSGGYYTFHPDSVKGRFTISRDNAKNTLYLQMSSLRSEDTAIYYCARQEGWSSAYFSWGQGTLVTVSA
VL: DIVMTQSPSSLDMSEGQKVTMICKSSQSLLNGSNQKNYLAWYQQKPGQSPKLLVSFASTRDSGVPDRFIGSGSGTDFTLTITNVQAEDLADYFCQQHYDTPYTFGGGKLEIR
notes: Mouse anti-human IL-31 hybridoma monoclonal antibody
EC50: 0.0043 µg/mL and 0.26 nM
